According to US20240026330A1 (FLUX THERAPEUTICS, published 2024):

Key:
Experiment in all cases: cell-based or functional assay
[1] = biological target: T1, UQCC2-nanoluc-alfa-tag-fusion
T1 chain: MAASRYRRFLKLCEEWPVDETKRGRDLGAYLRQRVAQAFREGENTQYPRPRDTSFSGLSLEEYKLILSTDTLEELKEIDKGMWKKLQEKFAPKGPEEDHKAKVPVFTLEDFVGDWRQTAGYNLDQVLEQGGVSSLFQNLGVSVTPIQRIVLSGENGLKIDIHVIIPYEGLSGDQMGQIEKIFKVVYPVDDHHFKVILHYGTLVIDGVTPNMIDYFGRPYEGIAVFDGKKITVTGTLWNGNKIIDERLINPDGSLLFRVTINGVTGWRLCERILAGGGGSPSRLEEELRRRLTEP

[2] = biological target: T2, LYRM7-nanoluc-alfa-tag-fusion
T2 chain: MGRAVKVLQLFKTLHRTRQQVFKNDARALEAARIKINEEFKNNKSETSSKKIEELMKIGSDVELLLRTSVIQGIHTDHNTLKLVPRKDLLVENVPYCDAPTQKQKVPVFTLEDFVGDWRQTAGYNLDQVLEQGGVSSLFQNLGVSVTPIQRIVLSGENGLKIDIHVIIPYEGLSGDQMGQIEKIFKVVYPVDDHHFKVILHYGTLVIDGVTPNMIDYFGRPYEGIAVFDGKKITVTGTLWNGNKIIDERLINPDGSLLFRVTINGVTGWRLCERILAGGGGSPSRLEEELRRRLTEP

[3] = biological target: COX6A2-nanoluc-alfa-tag-fusion

B1: FireflyLuciferase-P2A-a_alfatag_nano-Cezanne (other)
chain: MEDAKNIKKGPAPFYPLEDGTAGEQLHKAMKRYALVPGTIAFTDAHIEVDITYAEYFEMSVRLAEAMKRYGLNTNHRIVVCSENSLQFFMPVLGALFIGVAVAPANDIYNERELLNSMGISQPTVVFVSKKGLQKILNVQKKLPIIQKIIIMDSKTDYQGFQSMYTFVTSHLPPGFNEYDFVPESFDRDKTIALIMNSSGSTGLPKGVALPHRTACVRFSHARDPIFGNQIIPDTAILSVVPFHHGFGMFTTLGYLICGFRVVLMYRFEEELFLRSLQDYKIQSALLVPTLFSFFAKSTLIDKYDLSNLHEIASGGAPLSKEVGEAVAKRFHLPGIRQGYGLTETTSAILITPEGDDKPGAVGKVVPFFEAKVVDLDTGKTLGVNQRGELCVRGPMIMSGYVNNPEATNALIDKDGWLHSGDIAYWDEDEHFFIVDRLKSLIKYKGYQVAPAELESILLQHPNIFDAGVAGLPDDDAGELPAAVVVLEHGKTMTEKEIVDYVASQVTTAKKLRGGVVFVDEVPKGLTGKLDARKIREILIKAKKGGKIAVTRLKGSGATNFSLLKQAGDVEENPGPRSGTGSSGEVQLQESGGGLVQPGGSLRLSCTASGVTISALNAMAMGWYRQAPGERRVMVAAVSERGNAMYRESVQGRFTVTRDFTNKMVSLQMDNLKPEDTAVYYCHVLEDRVDSFHDYWGQGTQVTVSSGAPGSGPPSFSEGSGGSRTPEKGFSDREPTRPPRPILQRQDDIVQEKRLSRGISHASSSIVSLARSHVSSNGGGGGSNEHPLEMPICAFQLPDLTVYNEDFRSFIERDLIEQSMLVALEQAGRLNWWVSVDPTSQRLLPLATTGDGNCLLHAASLGMWGFHDRDLMLRKALYALMEKGVEKEALKRRWRWQQTQQNKESGLVYTEDEWQKEWNELIKLASSEPRMHLGTNGANCGGVESSEEPVYESLEEFHVFVLAHVLRRPIVVVADTMLRDSGGEAFAPIPFGGIYLPLEVPASQCHRSPLVLAYDQAHFSALVSMEQKENTKEQAVIPLTDSEYKLLPLHFAVDPGKGWEWGKDDSDNVRLASVILSLEVKLHLLHSYMNVKWIPLSSDAQAPLAQ
fold increase in UQCC2 protein expression (NLuc signal divided by firefly luciferase signal, relative to control) [1]: 2.87 fold
fold increase in LYRM7 protein expression (NLuc signal divided by firefly luciferase signal, relative to control) [2]: 1.39 fold
fold increase in COX6A2 protein expression (NLuc signal divided by firefly luciferase signal, relative to control) [3]: 1.48 fold
